Experimental findings from patent US20020119154A1 (University of Pennsylvania, published 2002) are described below.

The labels stand for the following.
B1: human prolactin (hPRL) (ligand, UniProt P01236 29-227, looked up)
chain: LPICPGGAARCQVTLRDLFDRAVVLSHYIHNLSSEMFSEFDKRYTHGRGFITKAINSCHTSSLATPEDKEQAQQMNQKDFLSLIVSILRSWNEPLYHLVTEVRGMQEAPEAILSKAVEIEEQTKRLLEGMELIVSQVHPETKENEIYPVWSGLPSLQMADEESRLSAYYNLLHCLRRDSHKIDNYLKLLKCRIIHNNNC
notes: Serum PRL and added hPRL are treated as one molecule; also called serum PRL; plasma PRL
B2: recombinant human prolactin binding protein (rhPRLBP) (receptor, UniProt P16471 25-234, looked up)
chain: QLPPGKPEIFKCRSPNKETFTCWWRPGTDGGLPTNYSLTYHREGETLMHECPDYITGGPNSCHFGKQYTSMWRTYIMMVNATNQMGSSFSDELYVDVTYIVQPDPPLELAVEVKQPEDRKPYLWIKWSPPTLIDLKTGWFTLLYEIRLKPEKAAEWEIHFAGQQTEFKILSLHPGQKYLVQVRCKPDHGYWSAWSPATFIQIPSDFTMND

The target of assay [1] is B2. In words: surface plasmon resonance, various concentrations of rPRLBP; binding site I of PRL; rPRLBP in solution at various concentrations. A general note: Surface plasmon resonance follows binding to a sensor surface in real time, without labels.
The target in the assay “human prolactin (hPRL)” is B1. The experiment in a line: cell-based or functional assay.

A word on the Kd: it is the free concentration of one partner at which half of the binding sites on the other are occupied at equilibrium, for simple one-to-one binding. As to B1, in assay [1], the Kd was 0.0134 µM.

B2: the “rat Nb2-11C lymphoma cell proliferation (tritiated thymidine uptake), 50 pM hPRL, 0-100 nM rhPRLBP” value with human prolactin (hPRL) is 3 fold.
